According to doi:10.1101/2025.10.30.685675v2:

System: CCCC(=O)Oc1ccc([N+](=O)[O-])cc1
Experiment: purified protein
Conditions: pH 8.0; 25.0 °C

SfDLH (Solimonas fluminis) showed a Km of 160 µM.
